Results from article PMC3679522 (eLife, 2013).

B1: importin β from S. cerevisiae (ScKap95) (natural protein)
chain: MSTAEFAQLLENSILSPDQNIRLTSETQLKKLSNDNFLQFAGLSSQVLIDENTKLEGRILAALTLKNELVSKDSVKTQQFAQRWITQVSPEAKNQIKTNALTALVSIEPRIANAAAQLIAAIADIELPHGAWPELMKIMVDNTGAEQPENVKRASLLALGYMCESADPQSQALVSSSNNILIAIVQGAQSTETSKAVRLAALNALADSLIFIKNNMEREGERNYLMQVVCEATQAEDIEVQAAAFGCLCKIMSLYYTFMKPYMEQALYALTIATMKSPNDKVASMTVEFWSTICEEEIDIAYELAQFPQSPLQSYNFALSSIKDVVPNLLNLLTRQNEDPEDDDWNVSMSAGACLQLFAQNCGNHILEPVLEFVEQNITADNWRNREAAVMAFGSIMDGPDKVQRTYYVHQALPSILNLMNDQSLQVKETTAWCIGRIADSVAESIDPQQHLPGVVQACLIGLQDHPKVATNCSWTIINLVEQLAEATPSPIYNFYPALVDGLIGAANRIDNEFNARASAFSALTTMVEYATDTVAETSASISTFVMDKLGQTMSVDENQLTLEDAQSLQELQSNILTVLAAVIRKSPSSVEPVADMLMGLFFRLLEKKDSAFIEDDVFYAISALAASLGKGFEKYLETFSPYLLKALNQVDSPVSITAVGFIADISNSLEEDFRRYSDAMMNVLAQMISNPNARRELKPAVLSVFGDIASNIGADFIPYLNDIMALCVAAQNTKPENGTLEALDYQIKVLEAVLDAYVGIVAGLHDKPEALFPYVGTIFQFIAQVAEDPQLYSEDATSRAAVGLIGDIAAMFPDGSIKQFYGQDWVIDYIKRTRSGQLFSQATKDTARWAREQQKRQLSL
notes: Kap95 (importin β) of S. cerevisiae, PCR-amplified ORF
B2: GST-Nup100(1–610) (domain or fragment, S. cerevisiae, UniProt Q02629 1-610, looked up)
chain: MFGNNRPMFGGSNLSFGSNTSSFGGQQSQQPNSLFGNSNNNNNSTSNNAQSGFGGFTSAAGSNSNSLFGNNNTQNNGAFGQSMGATQNSPFGSLNSSNASNGNTFGGSSSMGSFGGNTNNAFNNNSNSTNSPFGFNKPNTGGTLFGSQNNNSAGTSSLFGGQSTSTTGTFGNTGSSFGTGLNGNGSNIFGAGNNSQSNTTGSLFGNQQSSAFGTNNQQGSLFGQQSQNTNNAFGNQNQLGGSSFGSKPVGSGSLFGQSNNTLGNTTNNRNGLFGQMNSSNQGSSNSGLFGQNSMNSSTQGVFGQNNNQMQINGNNNNSLFGKANTFSNSASGGLFGQNNQQQGSGLFGQNSQTSGSSGLFGQNNQKQPNTFTQSNTGIGLFGQNNNQQQQSTGLFGAKPAGTTGSLFGGNSSTQPNSLFGTTNVPTSNTQSQQGNSLFGATKLTNMPFGGNPTANQSGSGNSLFGTKPASTTGSLFGNNTASTTVPSTNGLFGNNANNSTSTTNTGLFGAKPDSQSKPALGGGLFGNSNSNSSTIGQNKPVFGGTTQNTGLFGATGTNSSAVGSTGKLFGQNNNTLNVGTQNVPPVNNTTQNALLGTTAVPSLQQAPVTN
notes: Nup100 of budding yeast, GLFG-type FG-repeat region, residues 1-610; source: E. coli BL21(DE3), purified (GSH beads, eluted with glutathione, dialysed); not shown: GST, N-terminal, kept

How the values were obtained:
ZZ-HsRanQ69L = ZZ-HsRanQ69L (human, UniProt P62826 1-216, Q69L); experiment: SEC; 2 μM of each protein, 20 min on ice, Superdex 200 10/300 in Ran binding buffer (10 mM HEPES pH 7.4, 150 mM NaCl, 2 mM MgOAc2, 1 mM DTT); fractions by SDS-PAGE (SYPRO Ruby) and Western blot against the ZZ-tag; conditions: both partners purified
[1] = target: B1; experiment: pull-down; GST-FG fusions pre-bound to GSH beads; soluble protein (100-500 pmol) pre-mixed with 200 μg bacterial extract proteins in 0.5 ml pulldown buffer (10 mM HEPES pH 7.5, 160 mM KOAc, 1 mM MgOAc2, 1 mM DTT, 0.01% Triton X-100); 20 min, room temperature; eluted with 1 M NaCl, then SDS-sample buffer; SDS-PAGE, SYPRO Ruby; conditions: both partners purified

Binder	binding result (ZZ-HsRanQ69L)	binding result [1]
B1	binds	
B2		binds
